This series deals with T1, SsNdt80b-His (Sclerotinia sclerotiorum, UniProt A0A1D9PYE1 1-599).
T1 sequence: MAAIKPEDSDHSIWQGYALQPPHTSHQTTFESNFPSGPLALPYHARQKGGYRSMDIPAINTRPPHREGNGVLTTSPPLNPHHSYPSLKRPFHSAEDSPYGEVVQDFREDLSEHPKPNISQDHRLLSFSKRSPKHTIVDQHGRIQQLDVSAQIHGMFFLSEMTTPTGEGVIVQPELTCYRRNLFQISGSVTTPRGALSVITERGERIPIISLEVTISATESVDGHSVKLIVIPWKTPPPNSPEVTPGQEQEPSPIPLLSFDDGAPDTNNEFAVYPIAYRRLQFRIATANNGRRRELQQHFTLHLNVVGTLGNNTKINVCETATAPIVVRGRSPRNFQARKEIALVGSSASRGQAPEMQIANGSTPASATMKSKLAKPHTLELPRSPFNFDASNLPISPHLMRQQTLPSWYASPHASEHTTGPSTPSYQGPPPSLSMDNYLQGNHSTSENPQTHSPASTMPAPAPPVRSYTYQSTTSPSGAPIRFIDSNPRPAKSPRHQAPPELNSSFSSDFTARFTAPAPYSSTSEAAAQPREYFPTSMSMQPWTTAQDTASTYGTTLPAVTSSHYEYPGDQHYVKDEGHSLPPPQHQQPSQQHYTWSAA
Nature of the series: EMSA; LightShift Chemiluminescence EMSA Kit binding buffer (composition not given); protein 5 min on ice, then probe 30 min at room temperature; 6% native PAGE. The note with it: protein: recombinant; tags: His; label: 5'-biotin on strand 1; printed biotin strand is 39 nt, reverse strand 40 nt: 1 nt 5' overhang (T) on strand 2; unlabelled forward oligo S65 is 40 nt and blunt with S64. Background: Mobility shift assays separate free from complexed probe on a gel.

B1: P-SsSNF1 biotin probe (dsDNA)
DNA 1: TGAAGAGCAGCTGGAACCACAAATCAACTTTTCCTTTAA
DNA 2: TTTAAAGGAAAAGTTGATTTGTGGTTCCAGCTGCTCTTCA
B1: the binding result is “binds”.

Source of the values: article PMC12008772, “Transcription Factor SsNdt80b Maintains Optimal Expression of SsSNF1 to Modulate Growth and Pathogenicity in Sclerotinia sclerotiorum”.
